{"source": "the DeepSol protein solubility set", "data": [{"assay": "soluble on expression in E. coli; label from the status in PepcDB or PDB records", "values": [{"sequence": "MGSDKIHHHHHHMTIYTLSHGSLKLDVSDQGGVIEGFWRDTTPLLRPGKKSGVATDASCFPLVPFANRVSGNRFVWQGREYQLQPNVEWDAHYLHGDGWLGEWQCVSHSDDSLCLVYEHRSGVYHYRVSQAFHLTADTLTVTLSVTNQGAETLPFGTGWHPYFPLSPQTRIQAQASGYWLEREQWLAGEFCEQLPQELDFNQPAPLPRQWVNNGFAGWNGQARIEQPQEGYAIIMETTPPAPCYFIFVSDPAFDKGYAFDFFCLEPMSHAPDDHHRPEGGDLIALAPGESTTSEMSLRVEWL", "soluble on expression in E. coli": "not soluble"}, {"sequence": "MGSDKIHHHHHHMTERNSQDIGIQARFAEAEALGAHVYVLAAPLHNGSLPGALSVRRDHVACMLDGGADVQAVSPHLIYIPPSHFESARGWLERHGPASPCATILASPLPLAALAEHLKSFLRVCLPDGEPIVLAYWDPAILATLVGSAEDETLFVKGPVLSGEQRQAFLAPILRWTYWDRKGALRQIDWRQDRMPASAATLKPPLKLDQGQVDALTEASVPDGLLQHFSEHAPELLADVPERDRYGFVCRQIARARQHGIEGPGAWMDYCALAMRHGEAFDSHPDGVALLRTILPTASDRFSAS", "soluble on expression in E. coli": "not soluble"}, {"sequence": "MQEISFRNDILPLKDKLFRLALRITLDRAEAEDVVQDTMIRVWNKRDEWSQFESVEAYCLIVAKNLAIDRSQKKEAQNVEITPEMEEEPDANSPYDQLVHDEKMNIINRLVNELPEKQRLIMQLRDIEGESYKKIATLLNLTEEQVKVNLFRARQKVKQRYLEIDEYGL", "soluble on expression in E. coli": "not soluble"}, {"sequence": "MGSDKIHHHHHHMSQFEQDAHLKQQSDRALSDHELQADHTRQKTHELPAHFDFQQAGKQVLSIERDGLAQLDQYIDDNFTLACKNIFHCKGKVVVMGMGKSGHIGCKIAATFASTGTPAFFVHPGEASHGDLGMVTPHDIVIAISNSGESHEILSLIPVLKRQKVFLICMTSAPESTMGKAADIHLCVHVPQEACPLGLAPTTSTTATLVMGDALAVALLQARGFTAEDFALSHPGGALGRKLLLRVSDIMHSGDEIPHVPHDASLRDALVEITRKNLGMTVICEADMKIQGIFTDGDLRRIFDMNIDLNSARIADVMTAGGIRVAPQTLAVDALNLMQSRHITSVLVAENDRLVGIVHMHDMLRAGVV", "soluble on expression in E. coli": "not soluble"}, {"sequence": "MGSDKIHHHHHHMIGAWCFLDHAGPVTFPAGNGLDVGPHPHIGLQTFTWMIEGTMMHTDSLGSKQLIRPKQVNLMTAGHGISHTEVAPDTETQMHAAQLWIALPDHKRNMDPKFEHYPDLPVVEKDGLEFTVLVGEYLETTSPVVVHTPLVGVDLIATQDTKTRIPLNPEFEYGFMALDGVAHVNGHELTADNMVVLDTGLNEIEIEVKKGNRVLLIGGEPFETPILLWWNFVARTMDDLKEAREQWVNHDVRFGEIPDYVGARLEAPVLPDQMRASK", "soluble on expression in E. coli": "not soluble"}, {"sequence": "MEEIDDKSKFKVPSWAAKPPNGAHLDVQKGDALIQKLLIDDKKAYYFGRNNKQVDFAVEHASCSRVHALLLYHGLLQRFALIDMDSSHGTFLGNVRLRPLEVVFMDPGTQFHLGASTRKYSVRLKTEHHVEDDPTVAASDEQLDHQTSYNTAQNRRIPQLPISVEEARRKKRPRGNVAFLEEEEVINPEDVDPSVGRFRNLVTTAIISTNPNKRPGDPKRSEPPRKIVRPGRELMSAPLSSTFGPMALNAAPDLELYGKLLPEPGHHQYVTSTATEDEADDHHKKRYAKEAWPGRKPGAGIF", "soluble on expression in E. coli": "soluble"}, {"sequence": "SLRLKISLLSPADSFEIDLNHSYHLASAIYRAIERADPSLSIELHKPDVPKFFTFSKLFIPKRKFRIEGEKMVSDCEEAYFFFSTLRNEVAASLVEGLLSKPEIRICGVDFIVSEVSVLPEREVKGREKFVTLSPIYASTSVGENGRRRIFDLYPKDSKFYEVILQNLVKKYVLYYKSAPENLDFHMKPLNVKAKRIRLKDTFHRCVEMVFKAEGSPELLDVGYKAGFGSKNSMGFGMVKVV", "soluble on expression in E. coli": "soluble"}, {"sequence": "MKYSSIFSMLSFFILFACNETAVYGSDENIIFMRYVEKLHLDKYSVKNTVKTETMAIQLAEIYVRYRYGERIAEEEKPYLITELPDSWVVEGAKLPYEVAGGVFIIEINKKNGCVLNFLHSKLEHHHHHH", "soluble on expression in E. coli": "not soluble"}, {"sequence": "MKQQEVRQRAFAMPLTSPAFPPGPYRFVNREYMIITYRTDPAAIEAVLPEPLQMAEPVVRYEFIRMPDSTGFGDYSESGQVIPVTFRGERGSYTLAMFLDDQPPLAGGRELWGFPKKAGKPRLEVHQDTLVGSLDFGPVRIATGTMGYKYEALDRSALLASLAEPNFLLKIIPHVDGSPRICELVRYHTTDVAIKGAWSAPGSLELHPHALAPVAALPVLEVLSARHFVCDLTLDLGTVVFDYLRQ", "soluble on expression in E. coli": "soluble"}, {"sequence": "MRDAEKTVGNMIDKLKTAFIGSIDSEGFPNMKAMLQPRKREGIKTIYLTTNTSSMRVAQYRENNHACIYFCDTRFFRGVMLRGTMEVLTDPASKEMIWQEGDTMYYPEGVTDPDYCVLKFTAISGRFYSNFKSESFAVE", "soluble on expression in E. coli": "not soluble"}, {"sequence": "MSLRCLVTGATGYVGGRLVPELLDAGHRVRCLARSPDRLRDHPWAGKAEVVRGDVTDADSVARAMEGVDVAYYLVHALGSGDDFEATDRRAARTFAERAAAAGVRRIVYLGGLTPAGVPEGELSPHLRSRTEVGRILLASGVPTTVLRAAVVIGSGSASFEMLRYLTERLPVMVTPSWVHTRIQPVAVRDVLRALVGSATMPREVSRTFDVGGPDILTYREMMERYARVAELPRRLILPVPMLSPGLSSHWVGLVTPVPAAIARPLTESLRHEVVCGENDIVRYVPPPPGYPLGFDDALRLALQRVREARVTTRWSSASVPGAPSDPLPTDPDWAGGSLYTDDRALGVDAPPDALWRVVEGIGGDHGWYSFPLAWAVRGWLDRLVGGVGLRRGRRDAARLRVGDSLDFWRVEEIVPGRLLRLRAEMRLPGLAWLEMYAETDDAGRTRYRQRALFHPHGLAGHAYWWSVSPFHAVVFGGMARNIARAAARAAEGHHHHHH", "soluble on expression in E. coli": "not soluble"}, {"sequence": "MLRFTNCSCKTFVKSSYKLNIRRMNSSFRTETDAFGEIHVPADKYWGAQTQRSFQNFKIGGARERMPLPLVHAFGVLKKSAAIVNESLGGLDPKISKAIQQAADEVASGKLDDHFPLVVFQTGSGTQSNMNANEVISNRAIEILGGKIGSKQVHPNNHCNQSQSSNDTFPTVMHIAASLQIQNELIPELTNLKNALEAKSKEFDHIVKIGRTHLQDATPLTLGQEFSGYVQQVENGIQRVAHSLKTLSFLAQGGTAVGTGLNTKPGFDVKIAEQISKETGLKFQTAPNRFEALAAHDAIVECSGALNTLACSLFKIAQDIRYLGSGPRCGYHELMLPENEPGSSIMPGKVNPTQNEALTQVCVQVMGNNAAITFAGSQGQFELNVFKPVMIANLLNSIRLITDAAYSFRVHCVEGIKANEPRIHELLTKSLMLVTALNPKIGYDAASKVAKNAHKKGITLKESALELGVLTEKEFDEWVVPEHMLGPK", "soluble on expression in E. coli": "soluble"}, {"sequence": "MGSDKIHHHHHHMLDRIIGTASANNWLFFCLFNNKFSGDIDSQRLLNMFRSVIAALLACLSYSAHAVVILQYHHVSEDTPKVTSVIPAQFREQMSYLRENGFKVKPLTHVVEAIKQGRELADKTVAITFDDGYQNIADTAHPILKEFGYPYTIFISIDPIERKHKNVMSWATLKRLSDEGVTLANHSWGHEHLIRRLHGEDEQTWLTRITENLLATEAEIEAKTGQSVKMLAYPYGEYNTAIETLVQKLGFVGFGQQSGAAGGYSSLTALPRFPVAGAYADLTSLKAKLYSLNMPVLALTPRNTQLPLGQWRPEMQVTLDMADIVASQVMCFVQGQGAMKPSWESEDTFSIQAVTDLPPGRSRYNCTAPSKASGRYYWFSQAWVRPKNDGTWVKE", "soluble on expression in E. coli": "not soluble"}, {"sequence": "MKQLTILGSTGSIGNSTLSVVRANPELFKVTALVAGRNVREMAQQCLEFSPRYAAMSDEHSAKSLRLLLAEQGSDTEVYSGETAACELAALDDVDQVMAAIVGIAGLPSTLAAIRAGKQVLLANKESLITCGKLFMDEVKRSRAQLLPIDSEHNAIFQSLPERIQRQLGYSSLNENGVSRIILTGSGGPFRETPLSQFSDVTPDQACAHPNWSMGRKISVDSATMMNKGLEYIEARWLFNASAEQIEVVLHPQSVIHSMVRYHDGSILAQMGTPDMRTPIAHAMAYPMRVSSGVAPLDFCKVGALTFTTPDYQRYPCLKLAIDACNAGQAATTALNAANEISVMAFLDSKIRFTDIEVINRTVVEGLLLSEPTSVEEVLVIDRKARDVAAQVIAKLNN", "soluble on expression in E. coli": "not soluble"}, {"sequence": "PFKEVSPNSFLLDDSHALSQLLKKSYRWYSPVFSPRNVPRFADVSSITESPETLKAIRDFLVQRYRAMSPAPTHILGFDARGFLFGPMIAVELEIPFVLMRKADKNAGLLIRSEPYEKEYKEAAPEVMTIRYGSIGKGSRVVLIDDVLATGGTALSGLQLVEASDAVVVEMVSILSIPFLKAAEKIHSTANSRYKDIKFISLLSDDALTEENCGDSKNYTGPRVLSCGDVLAEHPH", "soluble on expression in E. coli": "soluble"}, {"sequence": "MGSDKIHHHHHHMQENRYNTCDRFLGGLEKDFIITEQIEDSPLTSEPSFLDYGIIAVCNRGSAIIHLLDNKHVWNKNELIFLFPRQLCSMRNVSEDFSAKFIIIPHVLHGDVLSSLRHFDPGFHFFVKDHFYYNIEDNNGIERFQSFCKLIENELERYRGNGLLRERIICYLGIFYMDVYDYYVKVRKKIPFRTSLRKEQLIYDFCSLVAENFKNHKNVGFYADKLNITTTYLSAIMNERCGISAKEFLSIYIVLEVKSLLRDSRLNIQEIAILTNFPSQSTLNRFFRQRTGMTLSQYRKHIFST", "soluble on expression in E. coli": "not soluble"}, {"sequence": "MSLPPILTSQIGPDSIELRLLVAADLEYFNGHFPEQAVLPGVTQLDWAVRLGCEHFGYSAAVANLEVLKFQQLILPGQEVTLVISHNATKEKLTFAYSDGDHRYASGRISFASKQDDGLEHHHHHH", "soluble on expression in E. coli": "not soluble"}, {"sequence": "PRTVKELTVSAGDNLIITLPDNEVELKAFVAPAPPVETTYNYEWNLISHPTDYQGEIKQGHKQTLNLSQLSVGLYVFKVTVSSENAFGEGFVNVTVKPAR", "soluble on expression in E. coli": "soluble"}, {"sequence": "MGSSHHHHHHSSGLVPRGSHMYLINQNGWIEVICGSMFSGKSEELIRRVRRTQFAKQHAIVFKPCIDNRYSEEDVVSHNGLKVKAVPVSASKDIFKHITEEMDVIAIDEVQFFDGDIVEVVQVLANRGYRVIVAGLDQDFRGLPFGQVPQLMAIAEHVTKLQAVCSACGSPASRTQRLIDGEPAAFDDPIILVGASESYEPRCRHCHAVPTKQR", "soluble on expression in E. coli": "soluble"}, {"sequence": "GMTKPKEPTALDLPMADPLPDETQKYFEICQEKLGMVPNVLKAYAFNVEKLNAFTAMYNDLMLGESQLSKLEREMIAVVVSSINKCFYCLVAHGAAVRQLSGDPQLGEMLVMNYRVAPLDARQRVMLDFAAKMTRASAEIEEADREVLRSHGFNDRDIWDIANVTGFFNMTNRVASATAMMPNAEYHGQFR", "soluble on expression in E. coli": "soluble"}, {"sequence": "MGSDKIHHHHHHMFNEDTKFASPYEINVLNELTGKNFQEDDLILLEKLSGMDYRKRVYVSEDQIGTLEFDLLDLTWKFIPSPLYYMIEDPKISLKYTKKRLKGKYIKEELLENPEELNEALKDNFEYIGVKIGDFLGVGVRKEDRVKVKDLSRKKELDFQKIADYLEYNKEYLDEMVENSIEILQDAVEKYKRKGYAINASFSGGKDSAVCTLISKEVIPDLDVVFIDTGLEYPETLNYVKDFVDKYDINLDTVDGDNFWDNLEKEGIPTKDNRWCNSACKLMPLKRYLKKKYGNKKVLTIDGSRKYESFTRANLDYERRSGFIDFQTNVFPILDWNSIDIWSYIYSKDIPYNPMYDKGFERIGCYLCPSALNSEFLRVKELHPDYFERWVKYLKKYFPESEVLRGFWRWDELPPKMVELEENMGVDIDKKKRLKRITQL", "soluble on expression in E. coli": "not soluble"}]}]}
